Experimental data as given in article PMC8755526.
Blank lines part the entries; values can stand above or below the substance they belong to.

Legend:
[1] = target: full-length, wild-type PLK1 (Flag-, Myc- or V5-tagged) (human) (UniProt P53350); assay: cross-linking; BS3 (20:1 crosslinker-protein) added to lysates of HEK293T cells for 30 min, quenched; IPs with anti-V5 and anti-Myc; SDS-PAGE and western blot with PLK1- and Bora-specific antibodies
[2] = target: PLK1 Polo-Box domain (Flag- or Myc-tagged) (human); assay: co-IP; lysates of cells co-expressing differently tagged PLK1 PBD incubated with increasing amounts of purified GST-Bora, then co-IP
[3] = target: endogenous PLK1 of HeLa-PLK1–3xMyc cells (human (endogenous in HeLa)) (UniProt P53350); assay: SEC; lysate of HeLa-PLK1–3xMyc cells synchronized in G2 with the CDK1 inhibitor RO3306; Superose 3.2/300, 50 mM Tris pH 7.5, 150 mM NaCl, 20 mM CHAPS, 1 mM DTT, 4 °C; fractions blotted
[4] = target: PLK1-T210E fused to CFP, YFP or mTurquoise 2 (human) (UniProt P53350); assay: FRET or BRET; FRET by confocal microscopy of fixed HEK293T cells co-transfected with YFP and mTurquoise constructs; 'FRET and co-localization analyzer' ImageJ plug-in

stoichiometry N [1]: 2
Substance: full-length, wild-type PLK1 (Flag-, Myc- or V5-tagged) (from UniProt P53350 1-603) (enzyme)

increase of co-precipitated PBD with purified GST-Bora added (lane 2) against none (lane 1) [2]: 60%
Substance: PLK1 Polo-Box domain (Flag- or Myc-tagged) (domain or fragment)

stoichiometry N [3]: 2
Substance: endogenous PLK1 of HeLa-PLK1–3xMyc cells (from UniProt P53350 1-603) (enzyme)

fold decrease of FRET emission against WT PLK1 [4]: 6 to 8 fold
Substance: PLK1-T210E fused to CFP, YFP or mTurquoise 2 (from UniProt P53350 1-603) (enzyme)
